Assay results: patent US20150291695A1 (CANCER RESEARCH TECHNOLOGY, published 2015)

Key:
[1] = target: T1, αvβ6 integrin, immobilized (UniProt P06756 31-992; P18564 22-709); assay: ELISA on immobilized αvβ6, rabbit anti-MFE detection
T1 construct: also called immobilized αvβ6; rsαvβ6

[2] = target: T2, carcinoembryonic antigen on LS-174T cells (human, UniProt P06731 35-702); assay: flow cytometry on LS174T cells
T2 construct: whole, on cells; also called CEA on LS174T cells; CEA-expressing LS-174T cells
T2 sequence: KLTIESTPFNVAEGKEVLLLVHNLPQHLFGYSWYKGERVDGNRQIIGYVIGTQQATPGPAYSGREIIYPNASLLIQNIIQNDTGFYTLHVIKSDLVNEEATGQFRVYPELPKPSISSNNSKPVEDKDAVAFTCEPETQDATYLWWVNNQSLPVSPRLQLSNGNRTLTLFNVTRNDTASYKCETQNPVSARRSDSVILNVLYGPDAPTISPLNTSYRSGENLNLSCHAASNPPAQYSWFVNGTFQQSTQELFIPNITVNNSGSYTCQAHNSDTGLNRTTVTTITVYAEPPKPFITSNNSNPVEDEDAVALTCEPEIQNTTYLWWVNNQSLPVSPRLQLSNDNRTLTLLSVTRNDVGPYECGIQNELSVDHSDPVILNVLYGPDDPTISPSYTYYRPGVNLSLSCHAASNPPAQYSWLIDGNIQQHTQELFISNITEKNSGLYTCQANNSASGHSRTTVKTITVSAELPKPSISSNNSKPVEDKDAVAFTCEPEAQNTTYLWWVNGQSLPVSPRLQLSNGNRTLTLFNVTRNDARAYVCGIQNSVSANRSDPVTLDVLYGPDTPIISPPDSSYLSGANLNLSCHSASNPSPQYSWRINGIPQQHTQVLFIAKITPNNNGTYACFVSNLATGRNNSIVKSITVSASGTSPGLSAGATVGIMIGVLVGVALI

[3] = target: T3, αvβ3 integrin, immobilized (UniProt P06756 31-1048; P05106 27-788); assay: ELISA on immobilized αvβ3, rabbit anti-MFE detection
T3 construct: also called immobilized αvβ3

[4] = target: T4, α5β1 integrin on A375Ppuro cells (UniProt P08648 42-1049; P05556 21-798); assay: flow cytometry on A375Ppuro cells, which express α5β1
T4 construct: whole, on cells

[5] = target: T5, αvβ3 integrin on A375Ppuro cells (UniProt P06756 31-1048; P05106 27-788); assay: flow cytometry on A375Ppuro cells, which express αvβ3
T5 construct: whole, on cells

[6] = target: T6, αvβ5 integrin on A375Ppuro cells (UniProt P06756 31-1048; P18084 24-799); assay: flow cytometry on A375Ppuro cells, which express αvβ5
T6 construct: whole, on cells

[7] = target: T7, αvβ8 integrin on A375Ppuro cells (UniProt P06756 31-1048; P26012 43-769); assay: flow cytometry on A375Ppuro cells, which express αvβ8
T7 construct: whole, on cells

[8] = target: T8, carcinoembryonic antigen, immobilized (UniProt P06731 35-685); assay: ELISA on immobilized CEA, rabbit anti-MFE detection, three concentrations
T8 construct: also called CEA; immobilized CEA
T8 sequence: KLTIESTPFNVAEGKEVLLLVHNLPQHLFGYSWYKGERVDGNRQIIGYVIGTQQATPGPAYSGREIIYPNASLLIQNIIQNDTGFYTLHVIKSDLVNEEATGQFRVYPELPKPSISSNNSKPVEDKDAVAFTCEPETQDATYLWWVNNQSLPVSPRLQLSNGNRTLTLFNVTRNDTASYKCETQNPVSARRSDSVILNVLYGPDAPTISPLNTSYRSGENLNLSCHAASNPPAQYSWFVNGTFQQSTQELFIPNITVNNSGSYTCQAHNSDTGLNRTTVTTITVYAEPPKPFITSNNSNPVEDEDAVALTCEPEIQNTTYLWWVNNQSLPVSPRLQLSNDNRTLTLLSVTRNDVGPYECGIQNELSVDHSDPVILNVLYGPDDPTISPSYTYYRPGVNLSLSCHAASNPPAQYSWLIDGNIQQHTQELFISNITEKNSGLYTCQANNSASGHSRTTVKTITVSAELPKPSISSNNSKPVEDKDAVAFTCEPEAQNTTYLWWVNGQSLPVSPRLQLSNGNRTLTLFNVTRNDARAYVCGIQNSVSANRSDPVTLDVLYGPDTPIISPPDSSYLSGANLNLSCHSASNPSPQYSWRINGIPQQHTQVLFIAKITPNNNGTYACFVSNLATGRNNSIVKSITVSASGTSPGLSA

T3 sequence (P06756 31-1048, chain 1 of 2): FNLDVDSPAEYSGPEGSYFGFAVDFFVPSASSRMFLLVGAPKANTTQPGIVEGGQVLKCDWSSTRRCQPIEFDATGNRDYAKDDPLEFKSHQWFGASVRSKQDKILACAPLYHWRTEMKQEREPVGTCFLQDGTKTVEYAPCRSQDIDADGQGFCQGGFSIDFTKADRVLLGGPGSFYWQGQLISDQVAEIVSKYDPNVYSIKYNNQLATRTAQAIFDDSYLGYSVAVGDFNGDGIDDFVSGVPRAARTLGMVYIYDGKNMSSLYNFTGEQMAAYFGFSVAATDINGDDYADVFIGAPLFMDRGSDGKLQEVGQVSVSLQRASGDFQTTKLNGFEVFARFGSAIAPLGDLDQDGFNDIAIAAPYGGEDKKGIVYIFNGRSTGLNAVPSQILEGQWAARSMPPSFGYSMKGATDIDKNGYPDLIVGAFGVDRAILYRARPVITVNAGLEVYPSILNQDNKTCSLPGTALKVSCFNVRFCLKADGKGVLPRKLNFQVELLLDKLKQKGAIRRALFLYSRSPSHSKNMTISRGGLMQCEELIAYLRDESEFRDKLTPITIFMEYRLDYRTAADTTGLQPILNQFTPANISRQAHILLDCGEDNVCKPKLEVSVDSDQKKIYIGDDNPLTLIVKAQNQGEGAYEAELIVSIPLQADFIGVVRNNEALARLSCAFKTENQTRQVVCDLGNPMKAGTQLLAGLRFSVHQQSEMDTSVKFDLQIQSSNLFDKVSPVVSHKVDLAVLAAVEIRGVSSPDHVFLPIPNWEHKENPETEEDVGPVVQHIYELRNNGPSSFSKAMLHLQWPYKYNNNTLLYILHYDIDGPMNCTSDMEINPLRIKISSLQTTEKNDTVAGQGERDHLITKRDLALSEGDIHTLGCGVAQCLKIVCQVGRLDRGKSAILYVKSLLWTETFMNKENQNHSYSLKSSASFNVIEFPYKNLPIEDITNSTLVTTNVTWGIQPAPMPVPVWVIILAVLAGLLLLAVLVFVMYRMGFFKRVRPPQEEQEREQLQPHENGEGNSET
T3 sequence (P05106 27-788, chain 2 of 2): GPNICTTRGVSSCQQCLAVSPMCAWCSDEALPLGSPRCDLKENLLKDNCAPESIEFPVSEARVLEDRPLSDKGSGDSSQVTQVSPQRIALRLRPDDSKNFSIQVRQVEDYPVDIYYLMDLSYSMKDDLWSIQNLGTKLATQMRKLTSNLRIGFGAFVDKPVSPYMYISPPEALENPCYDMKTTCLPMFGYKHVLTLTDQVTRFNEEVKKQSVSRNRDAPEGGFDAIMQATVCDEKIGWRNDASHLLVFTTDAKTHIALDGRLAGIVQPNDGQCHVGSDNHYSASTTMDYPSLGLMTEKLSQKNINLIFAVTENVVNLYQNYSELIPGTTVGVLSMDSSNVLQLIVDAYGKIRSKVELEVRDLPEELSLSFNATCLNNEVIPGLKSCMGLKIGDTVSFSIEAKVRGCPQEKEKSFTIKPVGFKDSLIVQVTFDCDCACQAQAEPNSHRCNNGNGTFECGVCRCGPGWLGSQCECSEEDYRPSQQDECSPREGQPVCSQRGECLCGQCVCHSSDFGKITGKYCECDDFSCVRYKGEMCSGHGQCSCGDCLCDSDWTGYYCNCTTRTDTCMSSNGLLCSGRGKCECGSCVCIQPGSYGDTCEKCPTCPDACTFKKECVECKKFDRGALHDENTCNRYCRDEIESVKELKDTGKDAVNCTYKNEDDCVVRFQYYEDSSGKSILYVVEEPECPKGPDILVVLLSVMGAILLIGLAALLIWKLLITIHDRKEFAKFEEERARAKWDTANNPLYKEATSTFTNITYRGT
T5 sequence (P06756 31-1048, chain 1 of 2): as the sequence (P06756 31-1048, chain 1 of 2) above
T5 sequence (P05106 27-788, chain 2 of 2): as the sequence (P05106 27-788, chain 2 of 2) above
T6 sequence (P06756 31-1048, chain 1 of 2): as the sequence (P06756 31-1048, chain 1 of 2) above
T6 sequence (P18084 24-799, chain 2 of 2): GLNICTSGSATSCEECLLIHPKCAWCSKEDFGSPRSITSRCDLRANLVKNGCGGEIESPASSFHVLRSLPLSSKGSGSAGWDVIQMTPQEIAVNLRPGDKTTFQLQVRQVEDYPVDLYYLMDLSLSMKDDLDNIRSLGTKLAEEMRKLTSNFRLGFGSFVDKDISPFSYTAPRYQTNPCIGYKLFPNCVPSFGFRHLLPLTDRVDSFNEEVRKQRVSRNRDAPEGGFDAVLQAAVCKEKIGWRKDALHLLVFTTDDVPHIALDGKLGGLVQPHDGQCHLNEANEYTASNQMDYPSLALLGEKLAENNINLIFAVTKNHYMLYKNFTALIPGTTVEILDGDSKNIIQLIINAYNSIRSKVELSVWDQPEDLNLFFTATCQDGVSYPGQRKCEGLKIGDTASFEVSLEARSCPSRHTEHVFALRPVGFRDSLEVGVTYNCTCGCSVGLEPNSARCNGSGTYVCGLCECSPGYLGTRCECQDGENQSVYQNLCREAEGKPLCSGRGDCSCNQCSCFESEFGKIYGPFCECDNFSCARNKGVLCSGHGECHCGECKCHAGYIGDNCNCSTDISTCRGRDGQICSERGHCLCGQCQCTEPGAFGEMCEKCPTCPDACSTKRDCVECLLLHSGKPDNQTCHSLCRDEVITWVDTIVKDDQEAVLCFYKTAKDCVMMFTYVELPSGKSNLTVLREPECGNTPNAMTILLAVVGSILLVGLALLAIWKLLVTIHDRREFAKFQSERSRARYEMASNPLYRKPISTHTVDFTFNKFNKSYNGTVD
T7 sequence (P06756 31-1048, chain 1 of 2): as the sequence (P06756 31-1048, chain 1 of 2) above
T7 sequence (P26012 43-769, chain 2 of 2): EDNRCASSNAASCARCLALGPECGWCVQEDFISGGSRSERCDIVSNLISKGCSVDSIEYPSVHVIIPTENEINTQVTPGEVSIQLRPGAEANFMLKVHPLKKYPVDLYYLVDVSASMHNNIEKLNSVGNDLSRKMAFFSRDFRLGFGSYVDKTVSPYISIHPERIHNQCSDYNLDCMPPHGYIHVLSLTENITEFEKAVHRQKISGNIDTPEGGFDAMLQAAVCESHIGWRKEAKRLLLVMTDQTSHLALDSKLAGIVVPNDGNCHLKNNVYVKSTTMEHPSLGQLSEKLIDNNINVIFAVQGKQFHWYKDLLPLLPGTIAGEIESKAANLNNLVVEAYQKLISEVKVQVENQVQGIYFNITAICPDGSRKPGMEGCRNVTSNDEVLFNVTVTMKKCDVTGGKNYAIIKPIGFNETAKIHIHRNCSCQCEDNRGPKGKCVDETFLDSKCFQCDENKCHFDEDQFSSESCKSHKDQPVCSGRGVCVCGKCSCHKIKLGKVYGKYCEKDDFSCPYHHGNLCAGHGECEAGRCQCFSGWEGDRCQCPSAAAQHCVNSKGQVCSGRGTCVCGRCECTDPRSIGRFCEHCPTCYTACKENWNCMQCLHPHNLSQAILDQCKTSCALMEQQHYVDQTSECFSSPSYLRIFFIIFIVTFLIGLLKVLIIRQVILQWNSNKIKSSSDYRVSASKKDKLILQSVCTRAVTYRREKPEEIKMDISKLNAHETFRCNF

Binder | binding result [1] | binding result [2] | binding result [3] | binding result [4] | binding result [5] | binding result [6] | binding result [7] | binding result [8]
MFE-23 scFv (scFv, also called parent MFE) scFv: QVKLQQSGAELVRSGTSVKLSCTASGFNIKDSYMHWLRQGPEQGLEWIGWIDPENGDTEYAPKFQGKATFTTDTSSNTAYLQLSSLTSEDTAVYYCNEGTPTGPYYFDYWGQGTTVTVSSGGGGSGGGGSGGGGSENVLTQSPAIMSASPGEKVTITCSASSSVSYMHWFQQKPGTSPKLWIYSTSNLASGVPARFSGSGSGTSYSLTISRMEAEDAATYYCQQRSSYPLTFGAGTKLELKRAAAHHHHHH | no binding (tested: 10 µg/ml) |  |  |  |  |  |  | 
NFEVP1 (scFv) scFv: QVKLQQSGAELVRSGTSVKLSCTASGFNIKDSYMHWLRQGPEQGLEWIGWIDPENGDTEYAPKFQGKATFTTDTSSNTAYLQLSSLTSEDTAVYYCNEGTPTAVPNLRGDLQVLAQKVAGPYPFDYWGQGTTVTVSSGGGGSGGGGSGGGGSENVLTQSPAIMSASPGEKVTITCSASSSVSYMHWFQQKPGTSPKLWIYSTSNLASGVPARFSGSGSGTSYSLTISRMEAEDAATYYCQQRSSYPLTFGAGTKLELKRAAAHHHHHH |  | no binding (tested: 50 µg/ml) | no binding (tested: 20 µg/ml) | no binding | no binding | no binding | no binding | no binding
